Data on eight substances can be found in patent US20250282835A1.

Targets include CytERm-mScarlet3; CytERm-mScarlet-I3; Cyterm fusion: dTomato; Cyterm fusion: mEGFP; Cyterm-TagRFP-T; Cyterm-mCherry; Cyterm-mScarlet; Cyterm-mScarlet-I.
What all share (assay): cell-based or functional assay

Regarding CytERm-mScarlet3, the % cells with OSER with CytERm-mScarlet3 turned out to be 7%. With CytERm-mScarlet-I3, the % cells with OSER in the experiment with CytERm-mScarlet-I3 was 5%. Cyterm fusion: dTomato showed a % cells with OSER with Cyterm fusion: dTomato of 82%.

The substance Cyterm fusion: mEGFP registered a % cells with OSER in the experiment with Cyterm fusion: mEGFP of 11%. In the experiment with Cyterm-TagRFP-T, Cyterm-TagRFP-T registered a % cells with OSER of 64%. With Cyterm-mCherry, in the experiment with Cyterm-mCherry, the % cells with OSER is 18%. In the case of Cyterm-mScarlet, the % cells with OSER with Cyterm-mScarlet was 8%. In the experiment with Cyterm-mScarlet-I, Cyterm-mScarlet-I came in with a % cells with OSER of 8%.
